# Results reported in article PMC7048800.
# T1: Long-HsNMT1 (human N-myristoyltransferase 1, residues 99-496) (human) (UniProt P30419)
# T1 sequence: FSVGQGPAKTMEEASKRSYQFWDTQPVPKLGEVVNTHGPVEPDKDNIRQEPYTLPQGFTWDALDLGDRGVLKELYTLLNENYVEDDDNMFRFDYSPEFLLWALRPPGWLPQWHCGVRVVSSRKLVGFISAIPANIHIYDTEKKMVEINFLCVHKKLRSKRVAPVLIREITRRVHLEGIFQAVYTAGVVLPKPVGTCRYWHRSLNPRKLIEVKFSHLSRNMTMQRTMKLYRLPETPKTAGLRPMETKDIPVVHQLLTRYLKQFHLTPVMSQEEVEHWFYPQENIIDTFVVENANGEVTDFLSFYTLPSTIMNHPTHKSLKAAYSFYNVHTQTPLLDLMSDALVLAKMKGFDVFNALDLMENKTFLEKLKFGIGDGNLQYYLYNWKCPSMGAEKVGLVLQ
# Tests used:
# [1] = target: HsNMT1ΔC3 (HsNMT1 variant with truncation of the last three amino acids) (human) (UniProt P30419)
# [2] = target: T1, Long-HsNMT1 (human N-myristoyltransferase 1, residues 99-496) (human)
# [3] = target: HsNMT1ΔC2 (HsNMT1 deletion variant with truncation of the last two amino acids) (human) (UniProt P30419)
binder,measurement,setting,value
GCSVSKKK [GlyCysSerValSerLysLysLys (SOS3) peptide],"Km for the peptide in the fluorescence-based coupled in vitro MYR assay with MyrCoA, 30 °C",[1],2140 µM
same,"Km for the peptide in the fluorescence-based coupled in vitro MYR assay with MyrCoA, 30 °C",[2],18 µM
same,"Km for the peptide in the fluorescence-based coupled in vitro MYR assay with MyrCoA, 30 °C",[3],629 µM
